B1: CFH binding protein of SEQ ID NO: 20 (CID 209864) (designed binder)
chain: IAAKFDEAQQAAFYEILHLPNLTELQRNHFIQTLRDDPSVSLWVLGLAQLLNDSQAPKIAAKFDEAQQHAFYTILHLENLTEEQRNAFIQSLRDDPSVSLEVLGEAIKLNISQAPK
notes: Coupled to Praesto Epoxy 85 resin
B2: CFH binding protein of SEQ ID NO: 5 (CID 209447) (designed binder)
chain: NAAEADDAQVSAAMEIIMLPNLTLEQAHSFIESLYRDPSVSKEVLGEAQKLNDSQAPK
notes: as for B1

Target: T1, recombinant human complement factor H (CFH), isolated from moss (human, UniProt P08603 19-1231)
T1 construct: also called moss-FH; recombinant CFH
Test: affinity chromatography, ligand on Praesto Epoxy 85, CFH supernatant bound in PBS pH 7.3, eluted at pH 3.5
Experimental: Coupling parameter. Proteins were purified to homogeneity and coupled to resin for AIC experiments. […] Variants were successfully coupled to epoxy-activated Praesto 85 resin.
AIC experiments. Capturing and Elution. For initial column performance tests, resins were packed into superformance 50-5 column housing. Phosphate buffered saline pH 7.3 (PBS) was used to equilibrate the column, followed by applying of 10 mL of recombinant CFH expression supernatant (titer: 0.47 mg/mL) at 6 min residence time. Resin was then washed with PBS for 15 column volumes. Elution was performed at pH 3.5 using 100 mM Citric acid buffer followed by stripping of residual bound CFH at pH 2.0. Elution at pH 3.5 and pH 2.0 was calculated by UV 280 nm absorption.

T1 sequence (P08603 19-1231 limits assumed): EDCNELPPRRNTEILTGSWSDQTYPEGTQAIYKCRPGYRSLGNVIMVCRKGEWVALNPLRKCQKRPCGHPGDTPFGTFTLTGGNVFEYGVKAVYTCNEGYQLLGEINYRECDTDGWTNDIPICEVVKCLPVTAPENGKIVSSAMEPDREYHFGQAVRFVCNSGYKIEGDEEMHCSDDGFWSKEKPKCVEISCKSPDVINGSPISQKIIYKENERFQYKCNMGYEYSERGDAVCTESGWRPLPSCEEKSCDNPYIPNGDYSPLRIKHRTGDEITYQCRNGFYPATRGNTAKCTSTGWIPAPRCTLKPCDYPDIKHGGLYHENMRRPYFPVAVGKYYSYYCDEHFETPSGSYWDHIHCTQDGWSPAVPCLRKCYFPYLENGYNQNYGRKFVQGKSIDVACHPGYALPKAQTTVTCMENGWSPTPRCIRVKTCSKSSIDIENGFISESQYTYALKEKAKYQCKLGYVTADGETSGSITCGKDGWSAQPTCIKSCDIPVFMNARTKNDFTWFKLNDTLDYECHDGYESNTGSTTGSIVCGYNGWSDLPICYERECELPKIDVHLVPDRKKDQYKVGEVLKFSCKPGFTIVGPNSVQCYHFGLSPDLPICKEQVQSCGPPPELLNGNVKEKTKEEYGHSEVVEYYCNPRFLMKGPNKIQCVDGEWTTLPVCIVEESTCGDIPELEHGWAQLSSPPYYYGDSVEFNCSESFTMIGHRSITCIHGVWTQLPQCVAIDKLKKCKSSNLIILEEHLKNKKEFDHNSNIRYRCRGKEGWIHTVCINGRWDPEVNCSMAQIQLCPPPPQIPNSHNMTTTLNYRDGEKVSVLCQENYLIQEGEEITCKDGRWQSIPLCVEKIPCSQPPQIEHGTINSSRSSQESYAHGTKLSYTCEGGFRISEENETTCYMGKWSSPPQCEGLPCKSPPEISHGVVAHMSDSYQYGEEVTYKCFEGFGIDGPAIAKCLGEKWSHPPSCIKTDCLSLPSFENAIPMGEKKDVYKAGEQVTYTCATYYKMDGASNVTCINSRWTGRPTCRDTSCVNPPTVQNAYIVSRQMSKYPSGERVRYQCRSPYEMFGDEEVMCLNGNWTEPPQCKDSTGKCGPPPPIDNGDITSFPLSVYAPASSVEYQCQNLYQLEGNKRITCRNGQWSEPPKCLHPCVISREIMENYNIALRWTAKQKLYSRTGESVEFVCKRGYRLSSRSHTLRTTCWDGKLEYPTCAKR

| Binder | Step Yield of CFH at pH 3.5 (percentage elution) |
| --- | --- |
| B1 | 96% |
| B2 | 91% |

— patent publication US20230416313A1 (NAVIGO PROTEINS, published 2023)
